Measured values from the supplement of paper PMC10567573.

B1: DFFB (parent)
chain: TLVEAIKEQDGREVDWEYFYGLLF

Variants of: B1
Assay: protein stability index of a GFP-peptide fusion (GPS, HEK-293T) (PSI 1-6); higher = more stable
Settings: c terminus: a fixed tail appended
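Also: lentivirally expressed fusions sorted by FACS into six bins by GFP to DsRed ratio, PSI derived from sequencing read proportions per bin multiplied by bin number.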

| Variant | protein stability index |
| --- | --- |
| TLVEAIKEQDGREVDWDYFYGLLF [E17D] | 2.52 |
| TLVEAIKEQDGREVDWRYFYGLLF [E17R] | 2.46 |
| TLVEAIKEQDGREVDWYYFYGLLF [E17Y] | 1.67 |
| TLVEAIKEQDGREVDWNYFYGLLF [E17N] | 1.4 |
| TLVEAIKEQDGREVDWKYFYGLLF [E17K] | 3.25 |
| TLVEAIKEQDGREVDWTYFYGLLF [E17T] | 2.42 |
| TLVEAIKVQDGREVDWEYFYGLLF [E8V] | 1.66 |
| TLVEAIKIQDGREVDWEYFYGLLF [E8I] | 1.3 |
| TLVEAIKGQDGREVDWEYFYGLLF [E8G] | 2.37 |
| TLVEAIKRQDGREVDWEYFYGLLF [E8R] | 2.67 |
| TLVEAIKMQDGREVDWEYFYGLLF [E8M] | 1.62 |
| TLVEAIKLQDGREVDWEYFYGLLF [E8L] | 2.82 |
| TLVEAIKSQDGREVDWEYFYGLLF [E8S] | 1.72 |
| TLVEAIKDQDGREVDWEYFYGLLF [E8D] | 2.08 |
| TLVEAIKHQDGREVDWEYFYGLLF [E8H] | 2.47 |
| TLVEAIKYQDGREVDWEYFYGLLF [E8Y] | 2.48 |
| TLVEAIKEQDGTEVDWEYFYGLLF [R12T] | 1.92 |
| TLVEAIKEQDGCEVDWEYFYGLLF [R12C] | 1.91 |
| TLVEAIKEQDGFEVDWEYFYGLLF [R12F] | 1.48 |
| TLVEAIKEQDGKEVDWEYFYGLLF [R12K] | 2.41 |
| TLVEAIKEQDGWEVDWEYFYGLLF [R12W] | 1.72 |
| TLVEAIKEQDGYEVDWEYFYGLLF [R12Y] | 2.59 |
| TLVEAIKEQDGRENDWEYFYGLLF [V14N] | 2.36 |
| TLVEAIKEQDGREEDWEYFYGLLF [V14E] | 2.37 |

| Variant | protein stability index |
| --- | --- |
| TLVEAIKEQDGREHDWEYFYGLLF [V14H] | 1.91 |
| TLVEAIKEQDGREFDWEYFYGLLF [V14F] | 1.51 |
| TLVEAIKEQDGREYDWEYFYGLLF [V14Y] | 2.18 |
| TLVEAIKEQDGRESDWEYFYGLLF [V14S] | 2.24 |
| TLVEAIKEQDGREKDWEYFYGLLF [V14K] | 1.23 |
| TLVEAIKEQDGREMDWEYFYGLLF [V14M] | 1.98 |
| TLVEAIKEQDGREADWEYFYGLLF [V14A] | 2.25 |
| TLVEAIKEQDGREVDWEYFYGLSF [L23S] | 2.1 |
| TLVEAIKEQDGREVDWEYFYGLMF [L23M] | 2.12 |
| TLVEAIKEQDGREVDWEYFYGLIF [L23I] | 2.24 |
| TLVEAIKEQDGREVDWEYFYGLHF [L23H] | 2.07 |
| TLVEAIKEQDGREVDWESFYGLLF [Y18S] | 2.24 |
| TLVEAIKEQDGREVDWENFYGLLF [Y18N] | 2.44 |
| TLVEAIKEQDGREVDWEDFYGLLF [Y18D] | 2.16 |
| TLVEAIKEQDGREVDWEGFYGLLF [Y18G] | 1.71 |
| TLVEAIKEQDGREVDWETFYGLLF [Y18T] | 1.9 |
| TLVEAIKEQDGREVDWERFYGLLF [Y18R] | 2.2 |
| TLVEAIKEQDGREVDWEWFYGLLF [Y18W] | 1.76 |
| TLVEAIKEQDGREVDWEYFKGLLF [Y20K] | 1.6 |
| TLVEAIKEQDGREVDWEYFLGLLF [Y20L] | 1.53 |
| TLVEAIKEQDGREVDWEYFNGLLF [Y20N] | 2.25 |
| TLVEAIKEQDGREVDWEYFPGLLF [Y20P] | 2.67 |
| TLVEAIKEQDGREVDWEYFVGLLF [Y20V] | 2.42 |
| TLVEAIKEQDGREVDWEYFRGLLF [Y20R] | 2.67 |

| Variant | protein stability index |
| --- | --- |
| TLVEAIKEQDGREVDWEYFWGLLF [Y20W] | 1.72 |
| TLVEAIKEQDGREVDWEYFQGLLF [Y20Q] | 2.07 |
| TLVEAIKEQDGREVDWEYRYGLLF [F19R] | 2.31 |
| TLVEAIKEQDGREVDWEYVYGLLF [F19V] | 1.42 |
| TLVEAIKEQDGREVDWEYYYGLLF [F19Y] | 2.19 |
| TLVEAIKEQDGREVDWEYKYGLLF [F19K] | 3.22 |
| TLVEAIKEQDGREVDWEYDYGLLF [F19D] | 2.76 |
| TLVEAIKEQDGREVDWEYLYGLLF [F19L] | 2.1 |
| TLVEAIKEQDGREVDWEYCYGLLF [F19C] | 2.04 |
| TLVEAIKEQDGREVDWEYHYGLLF [F19H] | 2.5 |
| TLVEAIKEQDGRFVDWEYFYGLLF [E13F] | 1.85 |
| TLVEAIKEQDGRYVDWEYFYGLLF [E13Y] | 3.29 |
| TLVEAIKEQDGRDVDWEYFYGLLF [E13D] | 2.1 |
| TLVEAIKEQDGRCVDWEYFYGLLF [E13C] | 1.22 |
| TLVEAIKEQDGRLVDWEYFYGLLF [E13L] | 1.57 |
| TLVEAIKEQDGRVVDWEYFYGLLF [E13V] | 2.07 |
| TLVEAIKEQDGRMVDWEYFYGLLF [E13M] | 2.02 |
| TLVEAIKEQDGRRVDWEYFYGLLF [E13R] | 1.81 |
| TLVEAIKEQDGRHVDWEYFYGLLF [E13H] | 1.84 |
| DLVEAIKEQDGREVDWEYFYGLLF [T1D] | 2.24 |
| ALVEAIKEQDGREVDWEYFYGLLF [T1A] | 2.32 |
| KLVEAIKEQDGREVDWEYFYGLLF [T1K] | 2.37 |
| SLVEAIKEQDGREVDWEYFYGLLF [T1S] | 1.41 |
| ELVEAIKEQDGREVDWEYFYGLLF [T1E] | 2.9 |

| Variant | protein stability index |
| --- | --- |
| TLVEAIKEQAGREVDWEYFYGLLF [D10A] | 2.01 |
| TLVEAIKEQFGREVDWEYFYGLLF [D10F] | 1.91 |
| TLVEAIKEQHGREVDWEYFYGLLF [D10H] | 1.99 |
| TLVEAIKEQRGREVDWEYFYGLLF [D10R] | 1.41 |
| TLVEAIKEQGGREVDWEYFYGLLF [D10G] | 2.66 |
| TLVEAIKEQPGREVDWEYFYGLLF [D10P] | 2.32 |
| TLVEAIKEQDGREVDWEYFYSLLF [G21S] | 2 |
| TLVEAIKEQDGREVDWEYFYMLLF [G21M] | 2.26 |
| TLVEAIKEQDGREVDWEYFYILLF [G21I] | 1.34 |
| TLVEAIKEQDGREVDWEYFYKLLF [G21K] | 2.31 |
| TLVEAIKEQDGREVDWEYFYNLLF [G21N] | 1.87 |
| TLVEAIKEQDGREVDWEYFYVLLF [G21V] | 1.08 |
| TLVEAIKEQDGREVDWEYFYELLF [G21E] | 1.93 |
| TLVEAIKEQDGREVDWEYFYYLLF [G21Y] | 1.53 |
| TLVEAIKEQDGREVDWEYFYWLLF [G21W] | 1.83 |
| TLEEAIKEQDGREVDWEYFYGLLF [V3E] | 2.86 |
| TLNEAIKEQDGREVDWEYFYGLLF [V3N] | 2.21 |
| TLKEAIKEQDGREVDWEYFYGLLF [V3K] | 2.88 |
| TLTEAIKEQDGREVDWEYFYGLLF [V3T] | 2.53 |
| TLSEAIKEQDGREVDWEYFYGLLF [V3S] | 3.22 |
| TLREAIKEQDGREVDWEYFYGLLF [V3R] | 2.23 |
| TLHEAIKEQDGREVDWEYFYGLLF [V3H] | 2.16 |
